Data: the supplement of paper PMC10724198

Key:
Saccharomyces cerevisiae [1] = test: protein stability index of tFT-peptide fusion in deletion strain of DAS1 (PSI (0-1 scale)); higher = more stable (slower turnover)
Procedure: (§1)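 MPS profiling in S. cerevisiae of two library types built from selected 12-aa C-degron peptides (IN1, IN2, LN1, LN3, VN2, R1-R5, W1-W3, Atg1 and Rpa12 C-termini): saturation mutagenesis libraries and C-terminal +1 capping libraries (13 aa). Each peptide is fused to the C-terminus of a sfGFP-mCherry timer, after a GGGS linker. Cells are FACS-sorted into 8 mCherry/sfGFP bins and sequenced. PSI runs from 0 (unstable) to 1 (stable), measured once in wild type and in the das1Δ or doa10Δ background.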

Saccharomyces cerevisiae [2] = test: protein stability index of tFT-peptide fusion in wild type (PSI (0-1 scale)); higher = more stable (slower turnover); conditions: genetic background: wild type
Procedure: as §1
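Throughout, for protein stability index of tFT-peptide fusion in deletion strain of DAS1: PSI is a weighted mean of each variant's read distribution over the sorted stability bins, computed only for variants having over 10 reads in total.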
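Throughout, for protein stability index of tFT-peptide fusion in wild type: PSI derived as read-weighted mean over the 8 sorting bins, only variants exceeding 10 total reads kept, mCherry placed adjacent to the peptide and sfGFP distal.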

| Sequence | protein stability index (Saccharomyces cerevisiae [1]) | protein stability index (Saccharomyces cerevisiae [2]) |
| --- | --- | --- |
| ARWRVGLWRGIS | 0.68 | 0.109 |
| ARWRVGLWRGKS | 0.679 | 0.653 |
| ARWRVGLWRGSS | 0.686 | 0.516 |
| ARWRVGLWRGTS | 0.682 | 0.318 |
| ARWRVGLWRPAS | 0.691 | 0.645 |
| ARWRVGLWRSAS | 0.693 | 0.102 |
| ARWRVPLWRGAS | 0.684 | 0.646 |
| ARWTVGLWRGAS | 0.692 | 0.495 |
| ARYRVGLWRGAS | 0.668 | 0.567 |
| CLIQPLPVQFLN | 0.548 | 0.103 |
| CRSCGYKFRTNN | 0.708 | 0.243 |
| CSSCGYKFRTNN | 0.695 | 0.216 |
| CTGCGYKFRTNN | 0.678 | 0.231 |
| CTICGYKFRTNN | 0.67 | 0.27 |
| CTQCGYKFRTNN | 0.697 | 0.25 |
| CTRCGYKFRTNN | 0.699 | 0.231 |
| CTSCGNKFRTNN | 0.695 | 0.52 |
| CTSCGYDFRTNN | 0.691 | 0.639 |
| CTSCGYKFRTHN | 0.717 | 0.325 |
| CTSCGYKFRTMN | 0.682 | 0.186 |
| CTSCGYKFRTNK | 0.704 | 0.689 |
| CTSCGYKFRTNND | 0.7 | 0.692 |
| CTSCGYKFRTNNN | 0.677 | 0.674 |
| CTSCGYKFRTNT | 0.693 | 0.579 |

| Sequence | protein stability index (Saccharomyces cerevisiae [1]) | protein stability index (Saccharomyces cerevisiae [2]) |
| --- | --- | --- |
| CTSCGYKFTTNN | 0.704 | 0.675 |
| CTSCGYKIRTNN | 0.704 | 0.261 |
| CTSCGYQFRTNN | 0.692 | 0.496 |
| CTSCGYSFRTNN | 0.695 | 0.391 |
| CTSCGYWFRTNN | 0.668 | 0.438 |
| CTSCMYKFRTNN | 0.689 | 0.207 |
| CTSCRYKFRTNN | 0.68 | 0.395 |
| FNMRWTFRYWVN | 0.518 | 0.0433 |
| FRGAVGGWRLVG | 0.685 | 0.192 |
| FSARWTFRYWVN | 0.553 | 0.0651 |
| FSMMWTFRYWVN | 0.354 | 0.0586 |
| FSMRWTERYWVN | 0.572 | 0.0612 |
| FSMRWTFCYWVN | 0.365 | 0.0818 |
| FSMRWTFFYWVN | 0.44 | 0.104 |
| FSMRWTFIYWVN | 0.263 | 0.0416 |
| FSMRWTFPYWVN | 0.601 | 0.079 |
| FSMRWTFRCWVN | 0.425 | 0.17 |
| FSMRWTFRTWVN | 0.475 | 0.181 |
| FSMRWTFRYEVN | 0.509 | 0.168 |
| FSMRWTFRYQVN | 0.539 | 0.0962 |
| FSMRWTFRYWFN | 0.503 | 0.318 |
| FSMRWTFRYWGN | 0.547 | 0.19 |
| FSMRWTFRYWIN | 0.469 | 0.0567 |
| FSMRWTFRYWTN | 0.644 | 0.0691 |

| Sequence | protein stability index (Saccharomyces cerevisiae [1]) | protein stability index (Saccharomyces cerevisiae [2]) |
| --- | --- | --- |
| FSMRWTFRYWVNV | 0.5 | 0.147 |
| FSMRWTFRYWVP | 0.541 | 0.541 |
| FSMRWTFRYWVS | 0.547 | 0.181 |
| FSMRWTFRYWVW | 0.377 | 0.195 |
| FSMRWTFRYWWN | 0.497 | 0.271 |
| FSMRWTIRYWVN | 0.38 | 0.0535 |
| FSMRWTLRYWVN | 0.438 | 0.0387 |
| FSTRWTFRYWVN | 0.62 | 0.0442 |
| FSWRWTFRYWVN | 0.756 | 0.0592 |
| HRGAVGGWRLVG | 0.665 | 0.172 |
| HTSCGYKFRTNN | 0.677 | 0.215 |
| KCHKKGQKQKIN | 0.592 | 0.342 |
| KKDKKGQKQKIN | 0.601 | 0.104 |
| KKHHKGQKQKIN | 0.588 | 0.0513 |
| KKHKKFQKQKIN | 0.599 | 0.0762 |
| KKHKKGGKQKIN | 0.653 | 0.169 |
| KKHKKGKKQKIN | 0.579 | 0.0795 |
| KKHKKGQGQKIN | 0.59 | 0.42 |
| KKHKKGQKHKIN | 0.588 | 0.228 |
| KKHKKGQKQCIN | 0.585 | 0.26 |
| KKHKKGQKQKCN | 0.584 | 0.312 |
| KKHKKGQKQKIC | 0.61 | 0.0636 |
| KKHKKGQKQKID | 0.611 | 0.547 |
| KKHKKGQKQKINS | 0.668 | 0.126 |

| Sequence | protein stability index (Saccharomyces cerevisiae [1]) | protein stability index (Saccharomyces cerevisiae [2]) |
| --- | --- | --- |
| KKHKKGQKQKPN | 0.722 | 0.617 |
| KKHKKGQKQLIN | 0.627 | 0.335 |
| KKHKKGQKQTIN | 0.571 | 0.362 |
| KKHKKGQKWKIN | 0.612 | 0.102 |
| KKHKKGQSQKIN | 0.676 | 0.204 |
| KKHKKGTKQKIN | 0.608 | 0.0759 |
| KKHKKGWKQKIN | 0.682 | 0.0739 |
| KKHKKGYKQKIN | 0.607 | 0.113 |
| KKHKKPQKQKIN | 0.659 | 0.0387 |
| KKHKMGQKQKIN | 0.623 | 0.0496 |
| KKKKKGQKQKIN | 0.567 | 0.164 |
| KKMKKGQKQKIN | 0.758 | 0.0965 |
| KMHKKGQKQKIN | 0.857 | 0.1 |
| LHILRQKMNHQN | 0.662 | 0.105 |
| LKILIQKMNHQN | 0.695 | 0.217 |
| LKILRGKMNHQN | 0.674 | 0.297 |
| LKILRQKMCHQN | 0.68 | 0.217 |
| LKILRQKMGHQN | 0.672 | 0.541 |
| LKILRQKMNGQN | 0.659 | 0.353 |
| LKILRQKMNHPN | 0.688 | 0.672 |
| LKILRQKMNHQI | 0.67 | 0.179 |
| LKILRQKMNHQL | 0.67 | 0.172 |
| LKILRQKMNHQNG | 0.662 | 0.657 |
| LKILRQKMNHQNI | 0.685 | 0.65 |

| Sequence | protein stability index (Saccharomyces cerevisiae [1]) | protein stability index (Saccharomyces cerevisiae [2]) |
| --- | --- | --- |
| LKILRQKMNHQNM | 0.592 | 0.601 |
| LKILRQKMNHQNW | 0.67 | 0.659 |
| LKILRQKMNHQP | 0.677 | 0.373 |
| LKILRQKMNNQN | 0.707 | 0.267 |
| LKILRQKMTHQN | 0.688 | 0.273 |
| LKILRQKQNHQN | 0.64 | 0.302 |
| LKILRQKWNHQN | 0.662 | 0.194 |
| LKILRQKYNHQN | 0.7 | 0.189 |
| LKILRQQMNHQN | 0.584 | 0.206 |
| LKINRQKMNHQN | 0.682 | 0.209 |
| LKIRRQKMNHQN | 0.687 | 0.246 |
| LKITRQKMNHQN | 0.674 | 0.229 |
| LVILRQKMNHQN | 0.675 | 0.135 |
| LVVSLSCVACIN | 0.0593 | 0.0181 |
| LVVYASCVACIN | 0.0371 | 0.023 |
| LVVYFSCVACIN | 0.0148 | 0.0194 |
| LVVYLHCVACIN | 0.0327 | 0.0158 |
| LVVYLRCVACIN | 0.0318 | 0.0199 |
| LVVYLSCCACIN | 0.138 | 0.0859 |
| LVVYLSCIACIN | 0.0218 | 0.0141 |
| LVVYLSCLACIN | 0.0537 | 0.0182 |
